Data from patent US20140105889A1 (published 2014).
Substitutions are numbered along the chain they refer to. Each block holds one binder with its values, some of them ahead of it.

Key:
FcγRIIb [1] = molecular target: T1, FcγRIIb (human, UniProt P31994 43-217, limits assumed); experiment: ratio of SPR KD values; parent polypeptide is IL6R-B3/IL6R-L
T1 construct: also called FcγIIB; FcgRIIb
T1 sequence: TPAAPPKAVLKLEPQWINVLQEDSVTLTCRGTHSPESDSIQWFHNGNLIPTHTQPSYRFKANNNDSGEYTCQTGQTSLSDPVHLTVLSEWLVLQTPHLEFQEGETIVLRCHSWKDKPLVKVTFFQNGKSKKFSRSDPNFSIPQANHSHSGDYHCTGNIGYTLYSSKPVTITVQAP

FcγRIIb [2] = molecular target: T1, FcγRIIb; experiment: ratio of SPR KD values of this variant (FcγRIIaH over FcγRIIb)
FcγRIIb [3] = molecular target: T1, FcγRIIb; experiment: ratio of SPR KD values of this variant (FcγRIIaR over FcγRIIb)
FcγRIIa type H = molecular target: T2, FcγRIIa type H (human, UniProt P12318 36-217); experiment: SPR (Biacore), captured antibody, FcγR as analyte, method of Example 14
T2 construct: also called FcγRIIaH; FcγRIIa(H)
T2 sequence: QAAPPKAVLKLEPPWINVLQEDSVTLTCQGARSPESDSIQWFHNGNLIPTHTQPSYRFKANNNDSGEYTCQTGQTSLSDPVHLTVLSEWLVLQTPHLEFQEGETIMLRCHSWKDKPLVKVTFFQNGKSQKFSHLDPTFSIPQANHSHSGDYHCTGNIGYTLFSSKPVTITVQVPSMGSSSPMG

human FcγRIIb [4] = molecular target: T3, human FcγRIIb (human, UniProt P31994 43-217, limits assumed); experiment: SPR (Biacore) KD; ratio against the KD for FcγRIIaH
T3 construct: also called hFcgRIIb
T3 sequence: T1 sequence

human FcγRIIb [5] = molecular target: T3, human FcγRIIb; experiment: SPR (Biacore) KD; ratio against the KD for FcγRIIaR
mouse FcγRIV = molecular target: T4, mouse FcγRIV (mouse); experiment: SPR (Biacore), antibody captured on Protein L, mouse FcγR as analyte, pH 7.4, 25 C
T4 construct: Bought soluble receptor; also called mFcgRIV; mFcgR IV

human FcγRIIIa(F) = molecular target: T5, human FcγRIIIa(F) (human, UniProt P08637 17-208, limits assumed); experiment: SPR (Biacore), antibody captured on Protein L, human FcγR as analyte, pH 7.4, 25 C
T5 construct: also called hFcgRIIIa(F); hFcgRIIIa

[6] = molecular target: T6, human FcRn (soluble human FcRn complexed with β2-microglobulin) (human, UniProt P61769 21-119); experiment: Biacore SPR, pH 7.0, 25 C; antibody captured by Protein L, human FcRn as analyte
T6 construct: also called hFcRn

human FcγRIIb [7] = molecular target: T7, human FcγRIIb (human, UniProt P31994 43-217, limits assumed); experiment: SPR (Biacore), captured antibody, FcγR as analyte, 25 C
T7 construct: also called FcγIIB; hFcgRIIb
T7 sequence: T1 sequence

human FcγRIIb [8] = molecular target: T7, human FcγRIIb; experiment: ratio of this variant's SPR KD for FcγRIIaH to its KD for FcγRIIb
human FcγRIIb [9] = molecular target: T7, human FcγRIIb; experiment: ratio of this variant's SPR KD for FcγRIIaR to its KD for FcγRIIb
human FcγRIIb [10] = molecular target: T7, human FcγRIIb; experiment: SPR KD for FcγRIIb of parent IL6R-B3/IL6R-L divided by that of this variant
human FcγRIIa type H = molecular target: T8, human FcγRIIa type H (human, UniProt P12318 36-217); experiment: SPR (Biacore), captured antibody, FcγR as analyte, 25 C
T8 construct: also called FcγRIIaH; FcγRIIa(H)
T8 sequence: T2 sequence

T5 sequence (P08637 other isoform, or with tags, fused parts or gaps limits assumed): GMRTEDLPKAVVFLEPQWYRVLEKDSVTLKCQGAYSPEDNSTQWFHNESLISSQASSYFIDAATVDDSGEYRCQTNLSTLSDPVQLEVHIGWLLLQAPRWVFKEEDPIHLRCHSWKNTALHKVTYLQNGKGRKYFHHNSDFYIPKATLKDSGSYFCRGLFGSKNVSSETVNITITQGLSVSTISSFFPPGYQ
T4 sequence (A0A0B4J1G0 21-203): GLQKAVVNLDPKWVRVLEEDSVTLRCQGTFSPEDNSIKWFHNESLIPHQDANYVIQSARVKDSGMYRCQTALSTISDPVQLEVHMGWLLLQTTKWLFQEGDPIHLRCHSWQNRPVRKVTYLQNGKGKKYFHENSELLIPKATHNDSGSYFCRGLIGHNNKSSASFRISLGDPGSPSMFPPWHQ

B1: IL6R-BP149/IL6R-L (antibody, human IgG1)
heavy: QVQLQESGPGLVKPSETLSLTCAVSGHSISHDHAWSWVRQPPGEGLEWIGFISYSGITNYNPSLQGRVTISRDNSKNTLYLQMNSLRAEDTAVYYCARSLARTTAMDYWGEGTLVTVSSASTKGPSVFPLAPSSKSTSGGTAALGCLVKDYFPEPVTVSWNSGALTSGVHTFPAVLQSSGLYSLSSVVTVPSSSLGTQTYICNVNHKPSNTKVDKKVEPKSCDKTHTCPPCPAPDYLGDDSVFLFPPKPKDTLMISRTPEVTCVVVDVSHEDPEVKFNWYVDGVEVHNAKTKPREEQDNSTYRVVSVLTVLHQDWLNGKEYKCKVSNAALPKPIEKTISKAKGQPREPQVYTLPPSRDELTKNQVSLTCLVKGFYPSDIAVEWESNGQPENNYKTTPPVLDSDGSFFLYSKLTVDKSRWQQGNVFSCSVMHEALHNHYTQESLSLSP
light: DIQMTQSPSSLSASVGDRVTITCRASQDISSYLNWYQQKPGKAPKLLIYYTSRLHSGVPSRFSGSGSGTDFTFTISSLQPEDIATYYCQQGNTLPYTFGQGTKVEIK
notes: EU numbering
KD(IIb) of the parent polypeptide/KD(IIb) of the altered polypeptide (FcγRIIb [1]): 53.1
KD (IIaH)/KD (IIb) (FcγRIIb [2]): 89.9
KD (IIaR)/KD (IIb) (FcγRIIb [3]): 13
Kd (FcγRIIa type H): 5.4 µM

B2: IL6R-B3/IL6R-L (antibody, human IgG1)
heavy: not shown
light: B1 light
notes: copies: 2 + 2
KD value for FcγRIIaH/KD value for FcγRIIb (human FcγRIIb [4]): 0.2
KD value for FcγRIIaR/KD value for FcγRIIb (human FcγRIIb [5]): 0.3

B5: IL6R-BP132/IL6R-L (antibody, human IgG1)
heavy: B1 heavy with Y236L, D239G, D298Y
light: B1 light
notes: copies: 2 + 2
Kd (human FcγRIIb [7]): 0.27 µM
KD (IIaH)/KD (IIb) (human FcγRIIb [8]): 61.1
KD (IIaR)/KD (IIb) (human FcγRIIb [9]): 21.5
KD(IIb) of the parent polypeptide/KD(IIb) of the altered polypeptide (human FcγRIIb [10]): 6.4

B6: IL6R-BP084/IL6R-L (antibody, human IgG1)
heavy: B1 heavy with D235E, Y236L, D239G, D298Y, V325M, A328K
light: B1 light
notes: copies: 2 + 2
Kd (human FcγRIIa type H): 2.4 µM
KD (IIaH)/KD (IIb) (human FcγRIIb [8]): 47.6
KD (IIaR)/KD (IIb) (human FcγRIIb [9]): 14.3
KD(IIb) of the parent polypeptide/KD(IIb) of the altered polypeptide (human FcγRIIb [10]): 5.1

The remaining lines, values ahead:

BINDING AMOUNT (RU) (mouse FcγRIV): 242 RU
BINDING AMOUNT (RU) (human FcγRIIIa(F)): 147 RU
B3: VH3/L(WT)-IgG1-F21 (antibody)
heavy: QVQLQESGPGLVKPSETLSLTCAVSGHSISHDHAWSWVRQPPGEGLEWIGFISYSGITNYNPSLQGRVTISRDNSKNTLYLQMNSLRAEDTAVYYCARSLARTTAMDYWGEGTLVTVSSASTKGPSVFPLAPSSKSTSGGTAALGCLVKDYFPEPVTVSWNSGALTSGVHTFPAVLQSSGLYSLSSVVTVPSSSLGTQTYICNVNHKPSNTKVDKKVEPKSCDKTHTCPPCPAPELLGGPSVFLFPPKPKDTLYISRTPEVTCVVVDVSHEDPEVKFNWYVDGVEVHNAKTKPREEQYNSTYRVVSVLTPLHQDWLNGKEYKCKVSNKALPAPIEKTISKAKGQPREPQVYTLPPSRDELTKNQVSLTCLVKGFYPSDIAVEWESNGQPENNYKTTPPVLDSDGSFFLYSKLTVDKSRWQQGNVFSCSVMHEALHYHYTQKSLSLSP
light: not shown
notes: copies: 2 + 2

Kd [6]: 5.9 µM
B4: IgG1-F79 (antibody, name in EU numbering)
heavy: B3 heavy with Y254M, S256T, T258E, P310V, Y436A
light: not shown
notes: VH3-IgG1 Fc variant; EU numbering
